Reference: article PMC5727398, “Nucleotide– and Mal3-dependent changes in fission yeast microtubules suggest a structural plasticity view of dynamics” (Nature Communications, 2017)

B1: monomeric Mal3 (1-143, Mal3-143) (domain or fragment, S. pombe, UniProt Q10113 1-143, looked up)
chain: MSESRQELLAWINQVTSLGLTRIEDCGKGYAMIQIFDSIYQDIPLKKVNFECNNEYQYINNWKVLQQVFLKKGIDKVVDPERLSRCKMQDNLEFVQWAKRFWDQYYPGGDYDALARRGNRGPANTRVMNSSAGATGPSRRRQV
notes: also called Mal3 CH domain
B2: full-length Mal3-GFP (natural protein, S. pombe, UniProt Q10113 1-308, looked up)
chain: MSESRQELLAWINQVTSLGLTRIEDCGKGYAMIQIFDSIYQDIPLKKVNFECNNEYQYINNWKVLQQVFLKKGIDKVVDPERLSRCKMQDNLEFVQWAKRFWDQYYPGGDYDALARRGNRGPANTRVMNSSAGATGPSRRRQVSSGSSTPSMTKSSANNNNVSSTANTAAVLRAKQAQQQITSLETQLYEVNETMFGLERERDFYFNKLREIEILVQTHLTTSPMSMENMLERIQAILYSTEDGFELPPDQPADLTTALTDHDTNNVAEEAQMTDLKDSETQRVPSAPDFVHARLQSLEVDDDENITF
notes: Mal3, the S. pombe EB protein, full length; His tag removed by TEV protease cleavage; also called dimeric Mal3; not shown: e-GFP, C-terminal, kept
B3: S. pombe α-tubulin1 (in the microtubule lattice) (natural protein, UniProt P04688 1-455, looked up)
chain: MREVISVHVGQAGVQIGNACWELYCLEHGIGPDGFPTENSEVHKNNSYLNDGFGTFFSETGQGKFVPRSIYVDLEPNVIDQVRTGPYKDLFHPEQMVTGKEDASNNYARGHYTVGKEMIDSVLERIRRMADNCSGLQGFLVFHSFGGGTGSGLGALLLERLNMEYGKKSNLQFSVYPAPQVSTSVVEPYNSVLTTHATLDNSDCTFMVDNEACYDICRRNLDIERPTYENLNRLIAQVVSSITASLRFAGSLNVDLNEFQTNLVPYPRIHFPLVTYSPIVSAAKAFHESNSVQEITNQCFEPYNQMVKCDPRTGRYMATCLLYRGDVIPRDVQAAVTSIKSRRTIQFVDWCPTGFKIGICYEPPQHVPGSGIAKVNRAVCMLSNTTSIAEAWSRLDHKFDLMYSKRAFVHWYVGEGMEEGEFSEAREDLAALERDYEEVGQDSMDNEMYEADEEY
notes: S. pombe alpha-tubulin1, native, untagged; the sample was a wild-type mixture of alpha-tubulin1 and alpha-tubulin2, the model and the residue numbers are those of alpha-tubulin1; Subunit of m2, written alone for the contacts seen in the structure; also called Sp_α-tubulin1; Sp_α-tub; source: purified from S. pombe as tag-free endogenous tubulin (dual isoform), polymerized in vitro

Experiments:
[1] = target: B3; experiment: cryo-EM structure; 20 or 30 uM dual-isoform Sp_tub polymerized with 5 mM GTP and 25 uM Mal3-143 at 32 °C in PEM mixed 1:1 with MES buffer; 13 uM MTs incubated with 60 uM Mal3 before freezing; 13-PF (13_3) MTs, single-particle averaging, 4.6 Å, no kinesin motor domain; conditions: both partners purified
[2] = target: T1, dynamic microtubules polymerized from unlabeled single-isoform S. pombe tubulin (S. pombe, UniProt P04688 1-455; P05219 1-448); experiment: TIRF microscopy; dynamic unlabeled MTs grown from antibody-immobilized GMPCPP pig brain MT seeds; GFP-labelled EB protein in solution; PEM100 pH 6.9 plus 1 mM GTP, with additional KCl (55, 75, 85 mM) in some experiments; 4.5 or 14 uM Sp_tub, 25 uM pig brain tubulin; conditions: both partners purified
T1 construct: S. pombe alpha-tubulin1, untagged; S. pombe beta-tubulin, untagged; Polymer of alpha-beta heterodimers, grown with 1 mM GTP from Alexa-488-labeled GMPCPP-stabilized pig brain MT seeds
T1 sequence (P05219 whole entry, canonical isoform, one chain of several): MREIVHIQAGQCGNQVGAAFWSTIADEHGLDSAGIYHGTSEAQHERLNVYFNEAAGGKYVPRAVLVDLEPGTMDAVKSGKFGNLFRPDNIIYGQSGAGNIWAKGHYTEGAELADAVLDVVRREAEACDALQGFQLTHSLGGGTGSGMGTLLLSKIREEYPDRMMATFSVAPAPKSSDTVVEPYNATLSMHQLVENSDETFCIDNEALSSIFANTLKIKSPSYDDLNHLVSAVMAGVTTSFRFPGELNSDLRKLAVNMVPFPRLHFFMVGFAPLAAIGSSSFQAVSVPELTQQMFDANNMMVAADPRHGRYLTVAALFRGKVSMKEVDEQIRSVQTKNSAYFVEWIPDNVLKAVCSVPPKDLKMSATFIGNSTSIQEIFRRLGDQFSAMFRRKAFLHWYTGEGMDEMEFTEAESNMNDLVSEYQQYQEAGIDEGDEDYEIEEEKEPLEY

[3] = target: the molecule itself; experiment: cryo-EM structure; 20 or 30 uM dual-isoform Sp_tub polymerized with 5 mM GTP and 25 uM Mal3-143 at 32 °C in PEM mixed 1:1 with MES buffer; 13 uM MTs incubated with 60 uM Mal3 before freezing; 13-PF (13_3) MTs, single-particle averaging, 4.6 Å, no kinesin motor domain

Binder: B1
binding result [1]: binds

Binder: B2
binding result [2]: binds

Binder: B3
binding result [3]: binds
